Experimental data published in patent US20040213780, “Methods and compositions for treating polyglutamine expansion-associated disease” (published 2004).

Biological target: Sp1 (UniProt P08047 P08047:2-785)
Assay: EMSA; 5 mM DTT, 1 ug/ml poly(dI-dC); binding reduced 20% by GST-huntingtin Q20 and 70% by Q51; competed by 50-fold unlabelled probe
Conditions: tags: purified Sp1, Promega; label: labeled (autoradiography)
Protocol: Chem. 273:26218, 1998) except that 5 mM DTT and 1 μg/ml poly(dI-dC) were used. GST-huntingtin fusions (0.2 μg/ul) were a gift of E. Wanker and were purified as described (J. S. Steffan et al., Nature 413:739, 2001). An approximate 1:1 ratio of purified proteins was used. Coomassie blue staining and Western blotting were used to examine the purified proteins.
Binding of Sp1 to a labeled consensus Sp1 site is shown in lane 1, and competition with a 50-fold molar excess of unlabelled probe is shown in lane 2 (plus sign). Incubation of Sp1 in the presence of GST-huntingtin with 20 glutamines (Qs) led to a 20% reduction in Sp1 binding (lane 3), whereas huntingtin with 51 Qs inhibited Sp1 binding by 70% (lane 4). The Sp1/DNA complex was identified with anti-Sp1 and is indicated by an arrow in all panels. […] Primary striatal cells were transfected with wild-type (HttQ 17) or mutant (HttQ75) huntingtin. EMSA was performed with a labeled D2 promoter fragment containing a Sp1 binding site. […] In competition experiments, a 100-fold molar excess of double-stranded nonradioactive oligonucleotide was used (lanes 2 and 4). […] EMSA was performed with nuclear extracts isolated from presymptomatic grade 1 and grade 4 HD brain tissue as described above herein. […] Competition experiments were performed as in (FIG. 2B) (lane 2). […] EMSA was performed as in FIG. 2C. […]

Sequence of Sp1 (P08047 2-785, one chain of several): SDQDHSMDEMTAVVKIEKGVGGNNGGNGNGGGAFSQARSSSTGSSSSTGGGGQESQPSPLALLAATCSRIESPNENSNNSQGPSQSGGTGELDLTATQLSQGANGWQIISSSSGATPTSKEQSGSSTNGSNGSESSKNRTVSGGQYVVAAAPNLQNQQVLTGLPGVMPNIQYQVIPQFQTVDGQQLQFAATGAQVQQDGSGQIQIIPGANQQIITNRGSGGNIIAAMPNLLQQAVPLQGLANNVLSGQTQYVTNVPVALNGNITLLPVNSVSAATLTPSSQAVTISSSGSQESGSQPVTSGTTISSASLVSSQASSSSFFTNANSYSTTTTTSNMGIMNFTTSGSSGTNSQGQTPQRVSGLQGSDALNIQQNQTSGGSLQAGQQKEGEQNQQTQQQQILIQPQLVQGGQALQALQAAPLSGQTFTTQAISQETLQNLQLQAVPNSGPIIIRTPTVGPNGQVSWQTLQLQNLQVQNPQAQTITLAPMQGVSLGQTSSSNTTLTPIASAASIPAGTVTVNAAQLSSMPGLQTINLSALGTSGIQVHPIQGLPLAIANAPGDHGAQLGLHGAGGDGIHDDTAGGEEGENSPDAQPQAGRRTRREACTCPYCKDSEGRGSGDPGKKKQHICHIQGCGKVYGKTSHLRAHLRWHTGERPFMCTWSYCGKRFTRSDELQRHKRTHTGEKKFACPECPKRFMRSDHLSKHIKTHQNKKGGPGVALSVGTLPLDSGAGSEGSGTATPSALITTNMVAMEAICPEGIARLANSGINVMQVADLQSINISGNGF

B1: Sp1 consensus site probe (dsDNA)
DNA 1: ATTCGATCGGGGCGGGGCGAGC
DNA 2: GCTCGCCCCGCCCCGATCGAAT
**Q.** Does B1 bind?
**A.** binds
